# Assay results published in a protein production outcome set (Wang et al. 2014).
# Assay: label from the status in PepcDB records
# 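Note: failed if final PepcDB status was selected cloned or expressed and not failed if soluble or beyond.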
sequence,measurement,value
MKFFQRTVLEPAYQGAQLHPGKLSGIYQNEILCNSLFHHYKQRTLKLGRELESRLKHLYHLVRMALPGTVSANTTRRSPANSIHTEVQIDSRTDTHLPQVSDDEDLRWIRTGLPHQYHAYLAIDRLKSSHHLAGQSVLCIGGRAALYPNYHQLIEAAGGHFMVFRGGAQDNSECLLALLARVDSIICPVDCINHEDFFTVRRYCQRTGKNCVMLERSDLVTFGKAVETLARGDCHNSETLEHHHHHH,protein production,failed
MEIKYLSLCILAGILFVSQVNASENNGKDDVKYAALTQKDLDALPVEKRASVLDELGFIHEYGIGVPMNRERALQYYKQACELGGNYGCYNVKYAYQYGDGVAKDSAQANKYAKKMNLDNLLIEQEYIDKFSQGIYAAKVLADTDKSQRPEFINALFNLLNNRPESDALFFSRIGFNQEKTFRLATLWVQDGDPQMDYQLGLLTLNDFSGHYVDEPYKARPASLKWFRAATEKGVVEAQSLLGGIYSGGEGDEWGIKPDIQEAQKWYGQAAEQGDSDAQIALGKIYYSGATGRTDYAKALALFTQVENDGTNSRSTMPLSWMYYNGLGTAPDCDKAWSYYKKASRYVGKKVEEKIFLSKCAADIQSRKNNADALPRVTLKKASIFSRGITAKPKECALIFQIGTDKIRNMANLHITLELKNADGMATEETLMIPPFGLNTLGIDMQNHDVDPLVTPYDLPLYTQDFCHGIGDIHFTLKSATATINGKNVDLLKADSVRFLDKE,protein production,failed
MPELPEVETTRRRLRPLVLGQTLRQVVHRDPARYRNTALAEGRRILEVDRRGKFLLFALEGGVELVAHLGMTGGFRLEPTPHTRAALVLEGRTLYFHDPRRFGRLFGVRRGDYREIPLLLRLGPEPLSEAFAFPGFFRGLKESARPLKALLLDQRLAAGVGNIYADEALFRARLSPFRPARSLTEEEARRLYRALREVLAEAVELGGSTLSDQSYRQPDGLPGGFQTRHAVYGREGLPCPACGRPVERRVVAGRGTHFCPTCQGEGP,protein production,not failed
MTHETDQLYQAVQATRPLLRNITAAVERGTLREGVTVGQRAILEGLSLTPGATAPQLGAALQMKRQYISRILQEVQRAGLIERRTNPEHARSHRYWLTPRGEAIITAIRADEMAKLALFSEGFSSVELTAYHKVQLALTRFFADLAKEA,protein production,not failed
MSYGLIIVLMIILGIGLWHTKKYHRAVVNQVAHVWITKNAFEHTALGMAIVSPDCRFLKVNRAYGEITGYTRPELLKMAVKELTHPEDQEKDTPYLQEVFAGNIHSFTTVKRYIHKNGSTIWVRSTISAVRTERGNLKYFVAQIQDMTIAKNAEDELRKSRDNAEVLARTDYLTKTLNRRAFIERLQEELERTKRTQEGFAMILVDIDYFKKVNDQFGHLAGDYVLQKFADCLSNNVRPYDFIGRYGGEEFIICLPDTDVEQAALVAERMRESVEALEVDYLHAQIKVTGSFGVAVYDSHSSDTLDELIEKADGAMYVAKNHKNTVYQWVS,protein production,failed
MSIPLLEYKPSSQNQRVPGYEVPNEDTPRIYRIEDAAYDSELKELIWATYRQVFSEHVILKFFRQGNLESQLKNRAISVRDFVRGLAKSEAFKTLVIKSNSNYRLVELALKRLLGRAPYNKDEEIAWSIKIATNGWDGFVDALLDSEEYQSNFGENIVPYQRRRYKDRPFNLVTPRYGNYWRDKLESERYIEGDIKNFLELAKSIEIKTVTFTPVSTANIKIPDTTRNTTPTGIPISVNPSANFPVRLEHHHHHH,protein production,failed
ETPVGLNLELTDQDGRPMFPDGSAVPYERTRKLVARLAAPLRATSLRVIIVGHTAATVVQAGDDDPLSLSVNRANAVREVLKQEGLPSSQVLSLVGKGDGEPLFPDAPALAANRRVTITLMRENPPLPPDLQR,protein production,failed
MATEATTKFPESDLRPIPQPPDFHPAIIVPAQNTTLKFWQLMVAGSIAGSVEHMAMFPVDTVKTHMQALRSCPIKPIGIRQAFRSIIKTDGPSALYRGIWAMGLGAGPAHAVYFSFYEVSKKFLSGGNPNNSAAHAISGVFATISSDAVFTPMDMVKQRLQIGNGTYKGVWDCIKRVTREEGFGAFYASYRTTVLMNAPFTAVHFTTYEAVKRGLREMLPEHAVGAEDEEGWLIYATAGAAAGGLAAAVTTPLDVVKTQLQCQGVCGCDRFKSSSISDVFRTIVKKDGYRGLARGWLPRMLFHAPAAAICWSTYETVKSFFQDLNGEANAA,protein production,failed
MVGIRKRKDFFEEFGSELFDNLEEMIEALLEDMGESVPFVYGFSIIRRPGEDPELREFGNISENSEDEENPFPSEIRDPLIDIFESEELIHVLAEIPEIEKEDLLLHATAQNLEIRILGASEYSQDIELPARVDPKSAKASYKNGVLEVTFKRCTEEMPVEIEIN,protein production,failed
MADCDSVTNSPLATATATLHTNRGDIKIALFGNHAPKTVANFVGLAQGTKDYSTQNASGGPSGPFYDGAVFHRVIQGFMIQGGDPTGTGRGGPGYKFADEFHPELQFDKPYLLAMANAGPGTNGSQFFITVGKTPHLNRRHTIFGEVIDAESQRVVEAISKTATDGNDRPTDPVVIESITIS,protein production,not failed
GSFQYVPVQLQGGAPWGFTLKGGLEHCEPLTVSKIEDGGKAALSQKMRTGDELVNINGTPLYGSRQEALILIKGSFRILKLIVRRRN,protein production,not failed
MSIATTPLHTALSLPQIQSFAASDMAAIDTLIHDRLTSDIVLINQIADHIICSGGKRLRPMLTMLAGHAIGPTGPHHHQLAAIIEFIHTATLLHDDVVDGSELRRSRSTANALWGNAPSVLVGDFLYSRSFQLMTELANLEVMQILAETTNRISEGEVLQLLHVHNPDTDETTYLSVIERKTAILFAAAAQLGALASHADTQTQTRMYEYGMQLGYAFQITDDVLDYTANNSQLGKNLGDDLAEGKATLPVIHAMTHSDAATCERLRMIISKGDSDAMPEVLNAIRTTGSLDYSRQRASAYAATAERALDGLPETEAVAALRGLARYAVQRTY,protein production,failed
MSVLGFDIGNLNCYIGVARQGGIEVITNDYSLHATPACVSFGPKDRSMGVAARQAVTTNIKNTVINFKHLIGRKFSDPVAQRFIPFIPCKVVKLPNDDIGVQVSYLGEPHTFTPEQVLAALLTKLRTIVESQLSDVKKVSDCVLAVPSYFTDVQRRAVLSAIQYAGLNSLRIVNETTAIALAYGIYKQDLPEEDAKSRNVVFLDIGHSSTQASLVAFNRGKLQMVNTSYDLESGGIWFDALIREHFRKEFKTKYGIDAATSPRPWLRLLDECERVKKQMSANQTPIPLNIECFMEDKDVTGKMQRQEFEDLAAPIFNRIKQVLINLFADGVSIKPEEIDEIEIVGGSSRIPMIREIVKDLFGKEPKTTMNQDEAVARGAAMQCAILSPTFRVREFAIKDTQPYRIRLSWNSTGENGGENDVFSPRDEVPFSKLVSLLRSGPFNVEAHYAQPNVVPHNQVHIGSWKVNGARPGADGGNQKVKVKVRVNPDGIFTIASATMYEPRIVEEVPAEAMEVDGDAKTEAPAEPL,protein production,failed
MKSFSIPIRFMLISSFFMSFGYFAVYAFLAIYLLSFLHFSTFQVGTVLTVIIITSRVIPLFSGLIADKIGYIIMMIAGLFLRGIGFIALGICSDFYTVSISSALIGFGTAFYEPAARAIFGSQPAHLRKNLFTYLNLSFNCGAIIGPIAGGFLLLLDPIYAFSLTGSLMLLFALIFYLLKNHFQVTTESTSIALGIQTILQNKSFLLFSFIMIFFYIMFTQLTVALPLHMKNISNSNQLATLVITINAITGVIFMVLFRKLFHKYNTLSFIKYGILLMSISFLLIPLFQHPYWLFICVIFFTIGETLVLPNADIAIANYSNESYTATFFGFYQLSLAFGFIIGNYTGTWFKSKLNGMYTPWLIFGGIGLIGFISLHILNIKKERSKEDIYLLEKY,protein production,failed
MDTVTKLSIIIPAWNEETGIARTLETLLALTAGRGDTEIIVSVSGNDRTKAIARTFPVVVCHSEKGRAVQMNAGAKLATGSILYFLHADTTPPPSFCDDIFSAIERGARAGCFRMTFDDPDWLMQLYGWFTQFPLPVCRGGDQSLFITKELFGQIGGFDERLQIMEDIEIIDRLQRHAGFHILDSTVTTSARKYHTNGTVRLQAIFGTIHLMYALGFSQKNIVAFYRDSIRLEHHHHHH,protein production,not failed
LPRQIAATVDLNSHGAGEHLDEQVIHCAHDLALQCNAELHLLHVCDAAKTHIADFGAGTVTMPGFDSSVRTAQRAAFNRLGDHHQIPLERRHFLEGAAIRAIAQFVGHNRVDVIVMGSHRHDAMQTFLGGTTAHVLEHPLCNVLAIKAVR,protein production,failed
ERRKTLETYQQLFYLLQTNPLYLAKLIFQMPQNKSTKFMDTVIFTLYNYASNQREEYLLLKLFKTALEEEIKSKVDQVQDIVTGNPTVIKMVVSFNRGARGQNTLRQLLAPVVKEIIDDKSLIINTNPVEVYKAWVNQL,protein production,failed
MVSTVRTVLGDVLPEHLGVCDAHDHLFFGSPQLPGQELRDASAARAELAAFREQGGGSVVQWTPYGLGRRAADLPLLSRDTGVHVVAATGLHQAVHYDAGTLAELRGRLADTFVAELTTGIGPSGVRAGLIKVAGGFHALDAHARWTMTAAAEAHHATGAPIAVHLELGTGALDVLDLLCGESGVPPHRVILGHLNRSPDFTVHRQAAEAGAFLAFDGPSRANHATDWRMPDALRALAEAGFGHRLLLGGDTTTAAARSVNGGPGLPYLLRRLRPRLEQALGKDLVGRIFTENPGRAFGVEWR,protein production,failed
MKDSMFLYEFDLFRYSKDLTALSFLLLIGSSLTVHWVSLSMSSSRDLLHYLVLPLILVVILHEGLHALTAKLSGAKTSLGVLTKYGIILAVYVGINTPLPVKKIRYITIAPIIISIVAFFFSWVTYSPFWAILYIFNTTGIVGDLIVFLVLSKMPSDAIVVDEGTIMKSNAEFPEPYPSWFSKLIIGLAVLVFLYILTNIRIEFEVVGTLPNQTMPVNSHFE,protein production,failed
MILATYFDGRTSRAQPVRLAVEQGEAVLFDPEGVPVRRAPLSALRVSERVKHAPRLVTFEDGAFCEIADPAEQQALNALLHRTGYREGAVVRAQNSWRLALGALALTLAALVLGYRYGLPWGAKVLAGMVPQRVEAQLGHASLAAFDQHWLEPSKLPQAQQARIRARFAALRAPDATHAYTIAFRDAGKLGANAFALPGGDIIVTDALVRLVGEGDGLMGVLAHEAGHVEYRHGLRQLIQSSAIGATAALLFGDISTILAGVPATMLTLRYSRDYERDADRYASRMLQSNGLSVAAFADVLQALEDSHGGARGTGSGAGRKEEDRDDASGFFSSHPLTRERIETLRRFDHTHGGSDAD,protein production,failed
MGVNMRAETESRIFSVDEYVRPSNGEPIRSVVLETNDSVVVVWHAHPGQEIASHVHPHGQDTWTVISGEAEYHQGNGIVTHLKAGDIAIAKPGQVHGAMNSGPEPFIFVSVVAPGNAGFALAEK,protein production,not failed
MLTDPFFYLVAIPAVILLGLTKGGFAGIGVVAVPMMTLAVSPVMAASIILPILLVQDVVSVWSFRKTWDKAILVLMLPAAAVGIFLGWALAALVEEAAVELAVGAISVVFALQRLWAEHALRAADSIEAGPARPWLGVLCGATAGFTSQIAHAGGPPFQIYVLPRGLPRDVFIGTSAIFFGVVNWMKVPAYLALGQLTPQALATAGVLLPLAIASTWAGVWLVRRVPAEGFYKVIYVLLVLVGGKLMFDGARGLLT,protein production,failed
LICLLSSLLSVQAAPGPHPHWSVGFHEMSFLDPLDRQPMRAIAFYPSTGIEHGSQLEGYQIAASRDAKIAIGRFPMLMLSHGNTGTPLALHDLATSLARKGFVVVAVIHPGDNSKDHSRLGTLSNLYGRPIQISEAITATLGDPMLSPFVNADQVGVIGYSAGGETALILSGATPDLDRLRRYCQERPNDRDACNTQGELIVDRDDLQPVADPRVHALMLLAPLSLKFGRQTLAGVHVPVLLYSGDGDQLVALDKNAAALARKLPVAPDFKLLAGAGHFVFMAPCSAQQMAAMPALCTDADGVDREDIHRNLILEAGNFFA,protein production,failed
